From US20180016324A1 (Regeneron, published 2018) come the findings set out here.

Test [1] has as its target T1, ZIKV (prM80E) with a C-terminal myc-myc-hexahistidine tag (Zika virus, UniProt A0A024B7W1 104-694).
T1 construct: also called ZIKV (prM80E)-mmH; ZIKV-mmH
Description: SPR, mAb captured, 25C.

Test [2] concerns the target T1, ZIKV (prM80E) with a C-terminal …. Description: SPR, mAb captured, 37C, pH 6.0 chase.
The target in test [3] is ZIKV envelope glycoprotein (E) of strain FLR (Colombia 2015) (Zika virus). Description: cell-based or functional assay.
Test [4] addresses ZIKV envelope glycoprotein (E) of strain PRVABC59 (Puerto Rico 2015) (Zika virus). Nature of the test: cell-based or functional assay.
Test [5] concerns the target ZIKV envelope glycoprotein (E) of strain MR766 (Uganda 1947) (Zika virus, UniProt Q32ZE1 291-790). Description: cell-based or functional assay.
For test [6], the target named is T1, ZIKV (prM80E) with a C-terminal …. Description: SPR, mAb captured, 37C.
The target is the same in test [7]. Nature of the test: SPR, mAb captured, 37C. This is another data set of the same source.
Test [8] has the same target. Description: SPR, mAb captured, 37C, pH 7.4.
The target in test [9] is T2, ZIKV prM/E polyprotein on virus-like particles (VLPs) from HEK293T/17 cells (Zika virus, UniProt A0A024B7W1 123-795).
T2 construct: also called ZIKV prM/E VLPs; Zika prM/E VLPs
Description: MSD ECL, VLPs on plate.

The target in test [10] is T1, ZIKV (prM80E) with a C-terminal …. Description: SPR, mAb captured, 37C, pH 5.5 chase.
For test [11] the target is unchanged. Nature of the test: SPR, mAb captured, 37C. This is another data set of the same source.
Test [12] shares this target. Nature of the test: SPR, mAb captured, 37C, pH 5.0 chase.

B1: H4H25587P (antibody, V domains shown)
VH: EVQLVESGGGLVQPGRSLTLSCAASGFTFDDYVMHWVRQAPGKGLEWVSGISWNSDTIDYADSVKGRFTISRDNAKNSLYLQMNSLRAEDTALYYCAKDRRSWYGGYFDYWGQGTLVTVSS
VL: DIQMTQSPSSLSASVGDRVTITCRASQGISSYLAWYQQKPGKVPKLLIYAASTLQSGVPSRFSGSGSGTDFSLTISSLQPEDVATYYCQKYNSAPLTFGGGTKVEIK
With B1, the Kd came to 5.13 nM in [1] and 13.2 nM in test [7]. The koff in [1] turned out to be 0.00422 s⁻¹; in [2], 0.0151 s⁻¹; in test [7], 0.0145 s⁻¹; in test [8] it was 0.018 s⁻¹; in [10], 0.0174 s⁻¹; in test [12] it was 0.0177 s⁻¹. In addition, the kon came out at 822000 M⁻¹ s⁻¹ in test [1] and 1.1e+06 M⁻¹ s⁻¹ in test [7]. The t½ in test [1] amounted to 2.7 min; in test [2] it was 0.77 min; in test [7] it was 0.8 min; in test [8], 0.64 min; in test [10] it was 0.66 min; in test [12], 0.7 min. For the same molecule, the “neutralization IC50, Vero cells” value turned out to be 0.955 nM in test [3], 0.321 nM in [4] and 0.15 nM in [5]. Also, the “t½ pH 7.4/t½ pH 5.0” value in test [6] turned out to be 1. Moreover, the “t½ pH 7.4/t½ pH 5.5” value in test [6] worked out at 1. For the same molecule, the EC50 in [9] was 0.145 nM. For the same molecule, the “t½ pH 7.4/t½ pH 6.0” value in [11] stood at 0.8.

B2: H4H25626P (antibody, V domains shown)
VH: QVQLVESGGGVVQPGRSLRLSCAASGFTFSSYGMHWVRQAPGKGLEWVALIWYDGSDKHYVDSMKGRFTISRDNSKNTLYLQMNSLRADDTAVYYCARQAYYFYYGMDVWGQGTTVTVSS
VL: not shown
For B2, in [1], the Kd was found to be 6.17 nM, the koff is 0.000905 s⁻¹, the kon was found to be 147000 M⁻¹ s⁻¹ and the t½ was found to be 12.8 min. Also, in [3], the “neutralization IC50, Vero cells” value stood at 1.09 nM. Moreover, in [4], the “neutralization IC50, Vero cells” value was 1.17 nM. Further, in test [5], the “neutralization IC50, Vero cells” value stood at 0.159 nM. In [7], this molecule returned a Kd of 6.18 nM, a koff of 0.00187 s⁻¹, a kon of 303000 M⁻¹ s⁻¹ and a t½ of 6.2 min. The molecule also showed an EC50 in test [9] of 1.59 nM.

B3: H4H25708N (antibody, V domains shown)
VH: EVQLLESGGDLVQPGGSLRLSCAASGFTFSSYAMSWVRQAPGKGLEWVSAISVSGDSTYYADSVKGRFTISRDNSKNTLYLQMNSLRAEDTAVYYCAKDRGYTWNYYYYGMDVWGQGTTVTVSS
VL: not shown
As for B3, the Kd in test [1] amounted to 1.21 nM; in [7], 2.97 nM. Besides, the koff is 0.000504 s⁻¹ in [1]; 0.00144 s⁻¹ in [2]; 0.00232 s⁻¹ in test [7]; 0.0026 s⁻¹ in [8]; 0.00157 s⁻¹ in [10]; 0.00129 s⁻¹ in test [12]. Moreover, the kon in [1] came out at 417000 M⁻¹ s⁻¹; in test [7] it was 781000 M⁻¹ s⁻¹. The t½ came to 22.9 min in [1]; 8.02 min in test [2]; 5 min in test [7]; 4.45 min in test [8]; 7.37 min in [10]; 8.9 min in [12]. Also, in [5], the “neutralization IC50, Vero cells” value was 0.349 nM. In addition, in [6], the “t½ pH 7.4/t½ pH 5.0” value was found to be 0.5. In addition, in [6], the “t½ pH 7.4/t½ pH 5.5” value amounted to 0.6. For the same molecule, in test [9], the EC50 was determined as 133 nM. Further, the “t½ pH 7.4/t½ pH 6.0” value in test [11] is 0.6.

B4: H4H25566P (antibody, V domains shown)
VH: QVQLQESGPGLVKPSQTLSLTCTVSGGSISSGGYYWSWIRQHPGKGLEWIGYIYYSGSTYYNPSLKSRITISIDTSKNQFSLKLTSVTAADTAVYYCARGQQLLSFDYWGQGTLVTVSS
VL: DIQMTQSPSSVSASVGDRVTITCRASQGISRWLAWYQLKPGKPPTPLIYAASSLQSGAPSRFSGRGSGTDFTLTISSLQPEDFATYYCQQANSFPYTFGQGTKLEIK
As for B4, the Kd was determined as 27.7 nM in test [1] and 52.5 nM in test [7]. Besides, the koff in test [1] is 0.0163 s⁻¹; in [2], 0.299 s⁻¹; in test [7], 0.036 s⁻¹; in [8], 0.0542 s⁻¹; in test [10], 0.392 s⁻¹; in [12], 0.368 s⁻¹. Besides, the results for the kon in [1] and in [7] were 590000 M⁻¹ s⁻¹ and 687000 M⁻¹ s⁻¹, respectively. Also, the t½ worked out at 0.7 min in [1]; 0.04 min in test [2]; 0.3 min in test [7]; 0.21 min in test [8]; 0.03 min in [10]; 0.03 min in test [12]. Besides, the “neutralization IC50, Vero cells” value in test [3] is 1.55 nM. Also, in test [6], the “t½ pH 7.4/t½ pH 5.0” value worked out at 6.8. Further, the “t½ pH 7.4/t½ pH 5.5” value in test [6] was determined as 7.2. The same molecule registered an EC50 in [9] of 0.82 nM. Also, the “t½ pH 7.4/t½ pH 6.0” value in [11] was determined as 5.5.

B5: H4H25633P (antibody, V domains shown)
VH: EVQLVESGGGLVQPGRSLRLSCAASGFTFDDYAIHWVRQAPGKGLEWVSGISWNSGYLGYADSVKGRFTISRDNAKNSLYLQMNSLRAEDTAFYYCAKDVAWGSVRHVFEIWGQGTMVTVSS
VL: EIVLTQSPGTLSLSPGERATLSCRASQTITGNQLAWYQQKPGQAPRLLIYFTSSRATGIPDRFSGSGSGTDFSLTISRLEPEDFAVYFCQQFGYSPWTFGQGTKVEIK
In test [1], B5 returned a Kd of 1.95 nM, a koff of 0.000802 s⁻¹, a kon of 411000 M⁻¹ s⁻¹ and a t½ of 14.4 min. Besides, the “neutralization IC50, Vero cells” value in test [3] was 0.44 nM. For the same molecule, the “neutralization IC50, Vero cells” value in test [4] worked out at 0.652 nM. The “neutralization IC50, Vero cells” value in [5] was determined as 0.102 nM. Besides, in test [7], the Kd was 7.39 nM, the koff was found to be 0.00501 s⁻¹, the kon was 678000 M⁻¹ s⁻¹ and the t½ came out at 2.3 min. This molecule had an EC50 in test [9] of 0.4 nM.

B6: H4H25630P (antibody, V domains shown)
VH: QVQLVQSGAEVKRPGASVKVSCKASDYTFTDYGISWVRQAPGQGLEWMGWFNTYNGNTNYAQKFQGRITMTTDTSTSTAYMELRSLRSDDTAIYYCARDWGLHYFENWGQGTLVTVSS
VL: EIVLTQSPGTLSLSPGERATLSCRASQSVRNSYLAWYQQKPGQAPRLLIYGASSRDTGIPDRFSGSGSGTDFTLTISRLEPEDFAVYYCQQYGRSPWTFGQGTKVEIK
As for B6, in [1], binding was put at a Kd of 0.21 nM, the koff worked out at 0.00035 s⁻¹, the kon was 1.67e+06 M⁻¹ s⁻¹ and the t½ came to 33 min. In addition, in [3], the “neutralization IC50, Vero cells” value stood at 0.283 nM. The “neutralization IC50, Vero cells” value in [4] was 0.539 nM. Also, the “neutralization IC50, Vero cells” value in [5] is 0.147 nM. Also, in test [7], the Kd was 1.16 nM, the koff was 0.00229 s⁻¹, the kon stood at 1.98e+06 M⁻¹ s⁻¹ and the t½ turned out to be 5.1 min. In addition, the half-maximal effective concentration (EC50) in [9] stood at 0.217 nM.

B7: H4H25710N (antibody, V domains shown)
VH: EVQLLESGGGLVQPGGSLRLSCAASGFTVSNNYMSWVRQAPGKGLEWVSVIYSGGRTNYGDSVKGRFTISRDNSKNTLYLQMNSLRAEDTAVYYCARENYDFWSGDPYGWDVWGQGTTVTVSS
VL: DIQMTQSPSSLSASVGDRVTITCRASQDISNYLAWFQQKPGKAPKSLIYGASSLQRGVPSKFRGSGSGTDFTLTISSLQPEDFASYYCQQYNSYPYTFGQGTKLEIK
As to B7, the Kd stood at 6.99 nM in test [1] and 12.4 nM in [7]. Moreover, the koff amounted to 0.00209 s⁻¹ in [1]; 0.13 s⁻¹ in [2]; 0.0064 s⁻¹ in [7]; 0.00541 s⁻¹ in [8]; 0.181 s⁻¹ in test [10]; 0.339 s⁻¹ in [12]. In addition, the kon in test [1] is 299000 M⁻¹ s⁻¹; in test [7] it was 519000 M⁻¹ s⁻¹. Moreover, the t½ in test [1] was determined as 5.5 min; in test [2] it was 0.09 min; in [7] it was 1.8 min; in test [8], 2.14 min; in test [10], 0.06 min; in [12] it was 0.03 min. Besides, the “neutralization IC50, Vero cells” value in test [3] amounted to 1.06 nM; in [4], 1.24 nM; in test [5], 0.0471 nM. In test [6], the “t½ pH 7.4/t½ pH 5.0” value was determined as 62.6. In addition, the “t½ pH 7.4/t½ pH 5.5” value in [6] was found to be 33.4. This molecule also yielded an EC50 in [9] of 0.542 nM. Moreover, the “t½ pH 7.4/t½ pH 6.0” value in [11] was 24.

B8: H2aM25711N (antibody, V domains shown)
VH: EVQLVESGGGLVQPGGSLRLSCAASGFTVSSNYMSWVRQAPGKGLEWVSVIYSGGRTNYGDSVKGRFTISRDNSKNTLYLQMNSLRAEDTAVYYCARENYDFWSGDPYGWDVWGQGTTVTVSS
VL: DIQMTQSPSSLSASVGDRVTITCRASQDISNYLAWFQQKPGKAPKSLIYGASSLQRGVPSKFSGSGSGTDFTLTISSLQPEDFATYYCQQYNSYPYTFGQGTKLEIK
As for B8, the EC50 in [9] was 0.468 nM.

B9: H2aM25709N (antibody, V domains shown)
VH: EVQLVESGGGLVQPGGSLRLSCAASGFTVSSNYMSWVRQAPGKGLEWVSVIYSGGRTNYGDSVKGRFTISRDNSKNTLYLQMNSLRAEDTAVYYCARENYDFWSGDPYGWDVWGQGTTVTVSS
VL: DIQMTQSPSSLSASVGDRVTITCRASQDISNYLAWFQQKPGKAPKSLIYGASSLQRGVPSKFSGSGSGTDFTLTISSLQPEDFATYYCQQYNSYPYTFGQGTKLEIK
In [9], B9 showed an EC50 of 0.362 nM.
